Data set [1] deals with the molecule itself. As to the kind of experiment: crystal structure; AtThiC with [4Fe-4S] cluster co-crystallised anaerobically with combinations of IRN, AIR, SAH, 5'-dAdo, L-Met, Zn or Fe; hanging drop, room temperature; space groups P3(2)21 and C2; 1.25-1.84 Å.
Data set [2] concerns the molecule itself. Put plainly: crystal structure; holo CcThiC with [4Fe-4S] cluster, no substrates; anaerobic, 140 mM HEPES pH 9.2, 7.5% PEG8000; space group C2; 2.93 Å.

B1: Arabidopsis thaliana ThiC, ΔN71-AtThiC (residues 1-71 removed) (enzyme)
chain: not shown
notes: ThiC (thiamin pyrimidine synthase, HMP-P synthase), Arabidopsis thaliana; full-length protein has 644 residues; Holds a [4Fe-4S] cluster and an additional metal (Fe or Zn); The final 55 residues are not visible in the electron density.}; also called thiamin pyrimidine synthase; not shown: His6, N-terminal, cleaved
B1: the binding result in data set [1] is “binds”.

B2: Caulobacter crescentus ThiC, full length (enzyme)
chain: not shown
notes: ThiC (thiamin pyrimidine synthase), Caulobacter crescentus; Holds a [4Fe-4S] cluster; also called CcThiC; holo CcThiC; not shown: His6, N-terminal, cleaved
B2: the binding result in data set [2] is on record as “binds”.

Source of the values: paper PMC4389238, “Non-canonical active site architecture of the radical SAM thiamin pyrimidine synthase” (Nature Communications, 2015).
